For one data set, the system named is post-surgical patients. Description: AMCA treatment of post-surgical hyperglycemia in patients. The data set is classed as in vivo, human. The conditions noted are these: 10 mg/kg i.v. BID, four post-surgical patients, blood glucose before 10-12 mmol/L.
Data set [1] deals with db/db mice. The data set can be described thus: Blood glucose of db/db mice after injection of test substance. The format is in vivo, mouse. The conditions noted are these: for active duration of anti-hyperglycemic effect in vivo: i.v. injection, hyperglycemic db/db mice; for anti-hyperglycemic effect (blood glucose): peripheral/i.v. injection, dose not stated.
The subject of data set [2] is db/db mice. Description: Serum nesfatin-1 / pladin in db/db after i.v. plasmin inhibitor (HPLC). The data set is classed as in vivo, mouse. As for the experimental part: Hypothalamus in acetic acid supplemented with protease inhibitor cocktail tablets (Roche, Indianapolis, Ind.) was homogenized, sonicated and heated at 95° C. for 15 minutes. The samples were then centrifuged at 13,200 rpm at 4° C. for 30 minutes. The supernatants were finally collected as their protein contents were determined by the Bradford assay (Thermo-Fisher Sci. Rockford, Ill.). Mouse serum was freshly prepared by drawing blood through ophthalmectomy. About […] hypothalamic total proteins or 25 μL serum were analyzed with Waters Delta 600E/2487/717 HPLC system using an analytical C18 reverse phase column (4.6×250 mm/5 μm, Hambon, Zhangjiagang, CN). Nesfatin-1 was eluted with a linear gradient from 20%-40% solvent B (solvent A: water with 0.1% trifluoroacetic acid, solvent B: acetonitrile with 0.1% trifluoroacetic acid) for 20 minutes at the flow rate of 1 ml/minute. The purified nesfatin-1 was used as the standard to determine the retention time and plot the standard curve. The fraction collected at the retention time was sent for the mass spectrometry analysis.
Mouse serum was freshly prepared by drawing blood through ophthalmectomy. The sera of plg^−/−lepr^−/− and db/db mice were directly analyzed with Waters Delta 600E/2487/717 HPLC System using a C18 reverse phase column (4.6×250 mm, 5 μm, Hambon, Zhangjiagang, CN) and eluted with a linear gradient from 20%-40% acetonitrile in 0.1% TFA for 20 minutes at the flow rate of 1 ml/minute (Enriori et al., 2007). Compared with db/db mice, the divergent fractions eluted in plg^−/−lepr^−/− mice were collected for the determination of molecular weight using the Applied Biosystems 4800 Proteomics Analyzer (Applied Biosystems). The MS spectra were acquired in the liner mode at a range of peptide mass from 3,000 to 20,000 Dalton.

Data set [3] concerns db/db mice. The data set can be described thus: Food intake and body weight of db/db mice. The format is in vivo, mouse.
Data set [4] concerns rats. To be noted: injected directly into the brain of rats; cited from earlier work.
In data set [5] the test system is rats. To be noted: cited from earlier work.
The conditions of data set [6]: i.c.v. or i.p. injection; cited from earlier work.
The conditions of data set [7]: in circulation, Pan et al., 2007, Price et al.; cited from earlier work.
A further data set deals with plasmin (Homo sapiens, UniProt P00747). The data set can be described thus: Incubation with plasmin in vitro (proteolysis). The format is biochemical. The conditions noted are these: for proteolysis by plasmin: incubated with plasmin in vitro. From the text:
The recovery of hypothalamic nesfatin-1 in plg^−/−lepr^−/− was consistent to its normalization in food intake and body weight. Fasted mice always had less nesfatin-1 in hypothalamus than their freely feeding counterparties (FIG. 2b). Furthermore, plasminogen deficiency provided a unique approach to study the chronic effect of elevated nesfatin-1 in hyperphagic obese animals, which was impossible for the i.c.v. or i.p. administration due to the short half-time of nesfatin-1. Consequently, agrp and npy were found reduced in plg^−/−lepr^−/−, while pomc was elevated compared with plg^+/+lepr^−/− (FIG. 3), contradicting to the previous report that i.c.v. nesfatin-1 didn't alter the expression of pomc, npy and agrp. Consistent to the present finding, the same group reported the up-regulation of pomc by i.p. nesfatin-1 in NTS recently.
Carefully examining the amino acid sequence of pladin (SEQ ID NO: 23), it has several putative cleavage sites by plasmin (FIG. 11A).

Another data set concerns wild-type mice. The data set can be described thus: Intravenous glucose tolerance test (IV-GTT / IGTT) in wild-type mice. The data set is classed as in vivo, mouse. The conditions noted are these: i.v. glucose 1.5 g/kg. As for the experimental part:
In the intravenous (i.v.) glucose tolerance test (IV-GTT), mice injected intravenously with 1 mg or 1.5 mg glucose per gram of body weight and placed in clean cages. Blood glucose was measured immediately before and at 5, 10, 20, 30, 60 and 120 minutes after the injection of glucose.

The next data set concerns ob/ob mice. The data set can be described thus: Blood lipid analysis in ob/ob mice after i.v. injection. The data set is classed as in vivo, mouse. The conditions noted are these: 100 ug i.v., 3 hours after injection. As for the experimental part:
One hundred ug Nesfatin-1 was injected into the tail vein of ob/ob mice. Blood samples were taken 3 hours after the injection for lipid analysis.

The nature of data set [8]: Clearance and half-life of i.v. peptide in circulation. The data set is classed as in vivo, mouse. The conditions noted are these: for clearance from circulation in plg−/− versus wild-type (plg+/+) mice: i.v. injection.
For data set [9], the system named is Streptozotocin-induced type-1 diabetic C57BL/6J mice. Description: Streptozotocin-induced type-1 diabetic mice, blood glucose. The data set is classed as in vivo, mouse. As for the experimental part: Male C57BL/6J mice (10 weeks) were given intraperitoneal injections of Streptozotocin (STZ) in sodium citrate (pH 4.5) on two consecutive days (100 mg/kg/day). Blood glucose was measured by tail vein sampling using the glucose oxidase enzymatic test. Diabetes was defined as a morning blood glucose reading of >16 mM after STZ. When blood glucose levels exceeded 30 mM, diabetic mice were given 16 ng of porcine insulin (Wangbang, Xuzhou, CN) immediately to prevent the blood glucose being dangerous every second day to prevent weight loss while maintaining blood glucose levels within the hyperglycemic range (16-30 mM). Nesfatin-1 (100 μg/mouse) was i.v. injected either alone or combined with s.c. insulin (2 ng/mouse) to STZ-induced type-I diabetic mice.
Male C57BL/6J mice (10 weeks) were intraperitoneally injected with 100 μg/g/day STZ in 100 mmol/L sodium citrate (pH 4.5) on two consecutive days. Blood glucose was measured by tail vein sampling using the glucose oxidase enzymatic test. When the fasting blood glucose reading was over 16 mmol/L after the STZ injection, the mice were considered to be type-1 diabetic. […]

For data set [10] the following is noted: blood-to-brain and brain-to-blood, nonsaturable system; cited from earlier work.
The next data set has as its system mice including db/db. The data set can be described thus: Blood insulin in mice after rPladin. The format is in vivo, mouse.
For a further data set, the system named is lean wild-type mice. The data set can be described thus: Blood glucose of lean wild-type mice after i.v. injection. The data set is classed as in vivo, mouse. The conditions noted are these: 10 nmol i.v. As for the experimental part: Without anesthesia, mice were placed into a restricting tube. The testing substance such as nesfatin-1 or rPladin was i.v. injected via mice tail vein with a total volume of 150 μL. After that mice were returned to the cages with food and water available freely. In the i.p. injection experiment, mice without anesthesia were injected with the testing substances directly into the peritoneal with a total volume of 200 μL.

A further data set concerns rat. Description: 0-3 h food intake of rat after i.p. and i.c.v. injection. The conditions noted are these: for food intake: 0-3 h. The data set is classed as in vivo.
Where [11] appears, read: i.v. plasmin inhibitor to db/db (AMCA 15 mg/day once daily for three days).
The mark [12] stands for this setting: i.c.v. injection (25 pmol), db/db.

“And” between values parts separate entries of the source, which are not always exact repeats. Equal values may be shown once. “Also recorded” adds a separate entry of the source. A value given as a limit tells only on which side of the number the result lay.

Chain of plasmin (P00747 581-810 limits assumed, species assumed): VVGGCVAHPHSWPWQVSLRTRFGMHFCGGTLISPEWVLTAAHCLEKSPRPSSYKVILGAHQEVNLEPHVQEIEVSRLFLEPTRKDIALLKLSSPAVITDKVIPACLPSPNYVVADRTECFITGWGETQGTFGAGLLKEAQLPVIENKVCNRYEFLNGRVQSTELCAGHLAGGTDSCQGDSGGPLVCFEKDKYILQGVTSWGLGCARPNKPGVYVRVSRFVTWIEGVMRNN
Chain of plasmin (P00747 97-580 partner limits assumed, species assumed): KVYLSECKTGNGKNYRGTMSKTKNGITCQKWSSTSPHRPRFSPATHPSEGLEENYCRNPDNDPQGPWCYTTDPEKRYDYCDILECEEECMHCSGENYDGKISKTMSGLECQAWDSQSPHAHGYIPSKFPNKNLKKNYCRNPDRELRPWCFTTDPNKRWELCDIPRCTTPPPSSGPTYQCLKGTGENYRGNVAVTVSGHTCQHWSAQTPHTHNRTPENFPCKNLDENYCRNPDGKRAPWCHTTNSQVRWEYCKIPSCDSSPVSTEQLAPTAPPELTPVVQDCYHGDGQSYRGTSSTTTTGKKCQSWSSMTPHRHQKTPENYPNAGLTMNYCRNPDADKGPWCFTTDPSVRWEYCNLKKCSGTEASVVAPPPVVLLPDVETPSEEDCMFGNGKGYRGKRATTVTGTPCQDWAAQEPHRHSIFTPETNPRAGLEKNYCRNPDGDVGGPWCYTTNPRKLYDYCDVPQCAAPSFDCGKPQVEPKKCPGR

For `NC[C@H]1CC[C@H](C(=O)O)CC1` [AMCA, tranexamic acid], the “blood glucose after treatment” value in the data set with post-surgical patients was 6.8 to 9.2 mmol/L. In the data set with db/db mice [1] (once-daily administration for 10 weeks since 2 weeks old, db/db), the fasting blood glucose result is reported as “reduced significantly”. The serum pladin entry in the data set with db/db mice [2] (10 minutes after i.v. 15 mg) is reported as “increased”. For the same molecule, the “circulating (serum) nesfatin-1” value in the data set on db/db mice [2] (30 minutes after i.v. injection) is on record as “increased”. For the same molecule, in the data set on db/db mice [3] (setting [11]), the body weight entry is given as “reduction” and the food intake result was “reduction”.

B1: NUCB2: hypothalamus-secreted protein containing 396 amino acids (protein, UniProt P80303 25-420, looked up)
Nucleobindin-2: VPIDIDKTKVQNIHPVESAKIEPPDTGLYYDEYLKQVIDVLETDKHFREKLQKADIEEIKSGRLSKELDLVSHHVRTKLDELKRQEVGRLRMLIKAKLDSLQDIGMDHQALLKQFDHLNHLNPDKFESTDLDMLIKAATSDLEHYDKTRHEEFKKYEMMKEHERREYLKTLNEEKRKEEESKFEEMKKKHENHPKVNHPGSKDQLKEVWEETDGLDPNDFDPKTFFKLHDVNSDGFLDEQELEALFTKELEKVYDPKNEEDDMVEMEEERLRMREHVMNEVDTNKDRLVTLEEFLKATEKKEFLEPDSWETLDQQQFFTEEELKEYENIIALQENELKKKADELQKQKEELQRQHDQLEAQKLEYHQVIQQMEQKKLQQGIPPSGPAGELKFEPHI
As for B1, the “anorexia and body weight” value with rats [4] was “promotes anorexia and decreases body weight”.

B2: nesfatin-1: 82 amino-acid fragment of nucb2 (mouse, SEQ ID NO: 18), recombinant, produced in E. coli (protein)
peptide: VPIDVDKTKVHNTEPVENARIEPPDTGLYYDEYLKQVIEVLETDPHFREKLQKADIEEIRSGRLSQELDLVSHKVRTRLDEL
Regarding B2, the neuropsychological effect entry in the data set on rats [5] was “increasing anxiety and fear-related behaviors”. Also, the “food intake and body weight” value in data set [6] was “inhibits food intake and thereby reduces body weight”. Also, the “half-life of nesfatin-1” value in [7] was 9 to 10 min and 10 min. Moreover, in the data set with plasmin (in vitro, FIG. 1b), the “time to complete digestion by plasmin” value is at most 2 h. In the data set with plasmin, the proteolysis by plasmin result is on record as “rapidly degraded”. In the data set on wild-type mice (100 μg), the “uptake of blood sugar” value was “significantly enhanced the uptake of blood sugar”. Moreover, in the data set with ob/ob mice, the HDL in blood entry was “unaffected”, the LDL in blood entry is “significantly reduced”, the “total cholesterol in blood” value is listed as “significantly reduced” and the triglyceride in blood entry is recorded as “significantly reduced”. Moreover, the blood glucose result with db/db mice [1] (10 nmol i.v., freely fed db/db) was “reduced blood glucose”. Further, the blood glucose entry with db/db mice [1] (100 μg i.v., freely fed db/db) was “significantly reduced blood glucose”. Besides, in the data set on db/db mice [1] (setting [12]), the blood glucose entry is recorded as “had no effect on the high levels of blood glucose; also recorded: little diabetic improvement”. In addition, the “active duration of anti-hyperglycemic effect in vivo” value with db/db mice [1] was over 6 h. The “anti-hyperglycemic effect (blood glucose)” value with db/db mice [1] (db/db) is given as “significantly reduced blood glucose”. Besides, the “clearance from circulation in plg−/− versus wild-type (plg+/+) mice” value in data set [8] was “cleared much slower in plg^−/− than plg^+/+ mice”. Besides, in [9] (100 μg/mouse i.v. alone or with s.c. insulin 2 ng/mouse), the blood glucose entry is “decreased only when nesfatin-1 was injected with s.c. insulin”. For the same molecule, the “crossing of the blood-brain barrier” value in data set [10] is on record as “crosses the Blood Brain Barrier”. Besides, in the data set on db/db mice [3] (25 pmol i.c.v., db/db mice), the food intake entry is given as “significantly inhibited food intake”.

B3: TKVHNTEPVENARIEPPDTGLYYDEYLKQVIEVLETDPHFREK LQKADIEEIRSGRLSQELDLVSHKVR (protein)
chain: TKVHNTEPVENARIEPPDTGLYYDEYLKQVIEVLETDPHFREKLQKADIEEIRSGRLSQELDLVSHKVR
modifications: amino acids by MALDI-TOF/TOF with Trypsic Peptides
With B3, the insulin entry with mice including db/db (i.c.v. injection, db/db mice) is “could not affect blood glucose and insulin”. Besides, the blood insulin result in the data set with mice including db/db (i.v. administration, mice including db/db) is “did not significantly affect”. Further, the proteolysis by plasmin result with plasmin was “rapidly degraded; also recorded: completely digested by plasmin”. Further, the “uptake of blood sugar” value in the data set with wild-type mice (10 nmol) is “significantly enhanced the uptake of blood sugar”. Also, the blood glucose result in the data set on db/db mice [1] (10 nmol i.v., freely fed db/db) was “significantly reduced blood glucose”; in the data set with db/db mice [1] (setting [12]) it was “had no effect on the high levels of blood glucose; also recorded: could not affect blood glucose and insulin”; in the data set with lean wild-type mice, “but not in lean wild-type”; in [9] (10 nmol per mouse i.v. alone or with s.c. insulin 2 ng/mouse) it was “lowered by rPladin only when insulin was also subcutaneously injected”. Moreover, in the data set on db/db mice [1], the “active duration of anti-hyperglycemic effect in vivo” value is 6 h and > 6 h. The “anti-hyperglycemic effect (blood glucose)” value with db/db mice [1] (db/db) is “significantly reduced blood glucose”. Further, in the data set on db/db mice [1] (plasmin digested rPladin, db/db (FIG. 11C)), the “anti-hyperglycemic effect after incubation with plasmin” value is given as “lost”. In addition, in [8] (data not shown), the half-life in circulation entry is recorded as “less than 10 minutes”. Moreover, the “clearance from circulation in plg−/− versus wild-type (plg+/+) mice” value in data set [8] is “cleared much slower in plg^−/− than wild-type mice”. Moreover, the food intake result in the data set with rat (25 pmol i.c.v. per rat) is on record as “significantly inhibited food intake”; in the data set on rat (30 nmol i.p. per rat) it was “significantly inhibited food intake”; in the data set with db/db mice [3] (25 pmol i.c.v., db/db mice) it was “significantly inhibited food intake”. Also, the “inhibition of food intake relative to nesfatin-1” value in the data set with rat (i.v., i.p. and i.c.v. administration) is reported as “As potent as nesfatin-1; also recorded: same extent of inhibition in food intake as nesfatin-1”.

The values above are taken from patent US8541367B2, “Plasma anti-diabetic NUCB2 peptide (pladin) and uses thereof” (Landing Biotech, Inc., priority 2009, dated 2013).
